Experimental data: patent US11858993B2, “Multi-specific antibodies with affinity for human A33 antigen and DOTA metal complex and uses thereof” (Memorial Sloan Kettering Cancer Center, priority 2015, dated 2024)
Entries after “also recorded” stand apart in the source; their conditions may differ. Where two headings read alike, the source gives them in different places.

Legend:
[1] = test system: SW1222 s.c. xenografts; assay: Three-cycle theranostic PRIT with nanoSPECT/CT dosimetry; format: in vivo, Nude mice
Procedure: Nude mice bearing established SW1222 s.c. xenografts (n=20; tumor volume=102±40 mm^3; average±standard deviation (SD)) underwent treatment (n=5-10/group) with either: no treatment (n=5), ^177Lu-DOTA-Bn only (n=5), or a three-cycle PRIT regimen consisting of anti-GPA33 PRIT+55 MBq of ^177Lu-DOTA-Bn (n=10; total: 165 MBq). Serial nanoSPECT/CT imaging was conducted on five randomly selected mice undergoing DPRIT up to 160 hours post-injection of the first cycle of ^177Lu-DOTA-Bn for dosimetry calculations.

[2] = test system: A33-positive SW1222 tumor; assay: Biodistribution of ^177Lu-activity 2-120 h p.i. following PRIT; settings: 2.0 MBq ^177Lu-DOTA-Bn
Procedure: Briefly, ^177Lu-activity in tumor and various normal tissues determined using a biodistribution assay following PRIT with optimum A33-C825 (0.25 mg/mouse) and dextran-clearing agent doses (25% (w/w), 62.5 μg) and 2.0 MBq (˜10 pmol) of ^177Lu-DOTA-Bn. Groups of SW1222 tumor-bearing mice (n=4 to 5) were given 250 μg of huA33-C825, followed 24 h later with 25% (w/w) (62.5 μg) dextran-clearing agent, and after an additional 4 h, 2.0 MBq (˜10 pmol) of 177Lu-DOTA-Bn. […] was sacrificed at 2, 24, and 120 h p.i. of ^177Lu-DOTA-Bn for biodistribution analysis.
All animal experiments were approved by the Institutional Animal Care and Use Committee of Memorial Sloan Kettering Cancer Center and institutional guidelines for the proper and humane use of animals in research were followed. Athymic nu/nu female mice (6-8 weeks old; Harlan Sprague Dawley) were allowed to acclimate in the vivarium for at least one week. […] All reagents were given intravenously (i.v.) via the lateral tail vein. […] In addition, huA33-C825 was trace radiolabeled with I-131 to estimate tumor uptake during PRIT. […] (Lindmo, T. et al., 1990, J. Immunol. Meth. 126(2):183-189). For PRIT with non-specific IgG-C825, an equivalent mg dose of a GD2-targeted bispecific antibody (hu3F8-C825) was used in place of huA33-C825. For ex vivo biodistribution analysis, mice were euthanized by CO2(g) asphyxiation, and tumor and selected organs were harvested, rinsed with water and allowed to air-dry, weighed and radioassayed by gamma scintillation counting (Perkin Elmer Wallac Wizard 3″). Count rates were background and decay corrected, converted to activities using a system calibration factor, normalized to the administered activity, and expressed as percent injected dose per gram (% ID/g). Differences in ^177Lu-activity concentration in tumor and various tissues were analyzed by Student's unpaired t test when appropriate. […]

[3] = Stability by SE-HPLC and Biacore after freeze and thaw cycles; format: physicochemical; settings: after multiple freeze and thaw cycles
[4] = molecular target: T1, Recombinant human A33 protein (Homo sapiens, UniProt Q99795); assay: Biacore T100 surface plasmon resonance, binding to human A33 antigen; settings: Biacore T100, bivalent analyte model
T1 construct: purchased Novoprotein
T1 sequence (Q99795 22-319): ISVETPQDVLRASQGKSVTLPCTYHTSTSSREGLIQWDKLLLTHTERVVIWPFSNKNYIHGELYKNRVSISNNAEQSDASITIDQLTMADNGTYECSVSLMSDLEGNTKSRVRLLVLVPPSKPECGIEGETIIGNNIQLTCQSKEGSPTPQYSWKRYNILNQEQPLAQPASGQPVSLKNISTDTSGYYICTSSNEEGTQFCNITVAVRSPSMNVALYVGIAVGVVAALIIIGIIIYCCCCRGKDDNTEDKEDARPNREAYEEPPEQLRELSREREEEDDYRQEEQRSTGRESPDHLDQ
Procedure: Binding affinity was measured by Biacore T100.
Biacore T100 Biosensor, CM5 sensor chip, and related reagents were purchased from GE Healthcare. Recombinant human A33 protein was purchased from Novoprotein. A BSA-(Y)-DOTA-Bn conjugate was prepared as described (Cheal et al., supra). A33 and DOTA antigens were immobilized using the Amino Coupling kit (GE Healthcare). Purified bispecific antibodies and control antibodies were analyzed, and data were fit to a bivalent analyte model using the Biacore T100 evaluation software as described (Cheal et al., supra).

[5] = test system: A33-positive SW1222 tumor; assay: Estimation of absorbed doses and therapeutic index for PRIT; format: in vivo, mice; settings: PRIT 0.25 mg huA33-C825, 62.5 μg CA, ^177Lu-DOTA-Bn; 2-120 h p.i. data
Description: Exemplary estimates of absorbed doses for tumor and select normal tissue in female athymic mice carrying s.c. A33 positive-colorectal cancer tumors for PRIT including the optimum huA33-C825 and dextran-clearing agent doses are set forth in Table 6.

[6] = test system: A33-positive SW1222 xenografts; settings: for Complete Response / Cures at 40 d post-treatment: Single-cycle; for tumor volume: day 23 post tumor-inoculation, average±SEM
Description: All animal experiments were approved by the Institutional Animal Care and Use Committee of Memorial Sloan Kettering Cancer Center and institutional guidelines for the proper and humane use of animals in research were followed. Athymic nu/nu female mice (6-8 weeks old; Harlan Sprague Dawley) were allowed to acclimate in the vivarium for at least one week. […] All reagents were given intravenously (i.v.) via the lateral tail vein. […] In addition, huA33-C825 was trace radiolabeled with I-131 to estimate tumor uptake during PRIT. […] (Lindmo, T. et al., 1990, J. Immunol. Meth. 126(2):183-189). For PRIT with non-specific IgG-C825, an equivalent mg dose of a GD2-targeted bispecific antibody (hu3F8-C825) was used in place of huA33-C825. For ex vivo biodistribution analysis, mice were euthanized by CO2(g) asphyxiation, and tumor and selected organs were harvested, rinsed with water and allowed to air-dry, weighed and radioassayed by gamma scintillation counting (Perkin Elmer Wallac Wizard 3″). Count rates were background and decay corrected, converted to activities using a system calibration factor, normalized to the administered activity, and expressed as percent injected dose per gram (% ID/g). Differences in ^177Lu-activity concentration in tumor and various tissues were analyzed by Student's unpaired t test when appropriate.

[7] = Triple-cycle, + 55.5 MBq (×3), 165.0 MBq
[8] = single-cycle huA33-C825 PRIT+either 11.1 MBq or 33.3 MBq ^177Lu-DOTA-Bn

huA33-C825: bispecific antibody: humanized A33 IgG1 with murine C825 anti-DOTA-Bn scFv linked to the light chain C-terminus
mice cured ([1]; 3 cycle dosing regimen): 10/10
Complete Response [1, 7]: 10/10
Cures at 40 d post-treatment [1, 7]: 10/10
histopathologic findings of kidney, liver, spleen, and bone/marrow ([1]; mouse, in vivo): no remarkable histopathologic findings
radiation dose to blood ([1]; mouse, in vivo): 150 rads
radiation dose to kidney ([1]; mouse, in vivo): 875 rads
toxicity ([1]; three-cycle PRIT (total 165 MBq)): without detectable toxicity; also recorded: no obvious toxicities
tumor-free survival at 100 days ([1]; three-cycle PRIT, 55 MBq/cycle (total 165 MBq)): all treated animals
Tumor-to-tissue ratio, Kidneys ([2]; 2 hr p.i. (n = 5)): 8.1 ± 1.7
Tumor-to-tissue ratio, Kidneys ([2]; 24 hr p.i. (n = 4)): 18.3 ± 13.4
Tumor-to-tissue ratio, Kidneys ([2]; 120 hr p.i. (n = 5)): 14.8 ± 4.9
stability by SE-HPLC and Biacore [3]: remained stable
koff [4]: 0.00581 s⁻¹
kon [4]: 91500 M⁻¹ s⁻¹
estimated absorbed dose, Blood [5]: 0.9 cGy/MBq
estimated absorbed dose, Bone [5]: 0.6 cGy/MBq
estimated absorbed dose, Heart [5]: 1.4 cGy/MBq
estimated absorbed dose, Kidneys [5]: 5.3 cGy/MBq
estimated absorbed dose, Large Intestine [5]: 0.8 cGy/MBq
estimated absorbed dose, Liver [5]: 6.3 cGy/MBq
estimated absorbed dose, Lung [5]: 1.8 cGy/MBq
estimated absorbed dose, Muscle [5]: 0.3 cGy/MBq
estimated absorbed dose, Small Intestine [5]: 0.5 cGy/MBq
estimated absorbed dose, Spleen [5]: 6.6 cGy/MBq
estimated absorbed dose, Stomach [5]: 0.6 cGy/MBq
estimated absorbed dose, Tumor [5]: 65.8 cGy/MBq
Complete Response ([6]; + 11.1 MBq): 0/8
Cures at 40 d post-treatment ([6]; + 11.1 MBq): 0/8
Complete Response ([6]; + 33.3 MBq): 0/8
Cures at 40 d post-treatment ([6]; + 33.3 MBq): 0/8
tumor volume ([6]; 11.1 MBq ^177Lu-DOTA-Bn): 694±138 mm^3
tumor volume ([6]; 33.3 MBq ^177Lu-DOTA-Bn): 495±76 mm^3
effective dose range (tumor) ([6]; mouse, in vivo): 1800-2200 cGy
complete response (CR) [6, 8]: no CR
slight growth delay of the tumors, up to (days following treatment) [6, 8]: ~15 days
